Laboratory results taken from publication PMC11513116.
Values joined by “and” are separate entries in the source; they are usually repeats but may differ in a detail not shown here. Equal values may be shown once.

Biological target: GCSC1-GFP fusion protein (UBIpro::GCSC1-GFP) (rice (variety Lemont))
Test: native gel or EMSA

stoichiometry N: 2 and 4
Substance: GCSC1-GFP fusion protein (UBIpro::GCSC1-GFP) (natural protein)
